Data as given in patent US20100330095A1 (U3 PHARMA, published 2010).

Tests used:
[1] = molecular target: T1, human receptor tyrosine kinase AXL transcript variant 1 (human, UniProt P30530 26-894); experiment: cell-based or functional assay
T1 sequence: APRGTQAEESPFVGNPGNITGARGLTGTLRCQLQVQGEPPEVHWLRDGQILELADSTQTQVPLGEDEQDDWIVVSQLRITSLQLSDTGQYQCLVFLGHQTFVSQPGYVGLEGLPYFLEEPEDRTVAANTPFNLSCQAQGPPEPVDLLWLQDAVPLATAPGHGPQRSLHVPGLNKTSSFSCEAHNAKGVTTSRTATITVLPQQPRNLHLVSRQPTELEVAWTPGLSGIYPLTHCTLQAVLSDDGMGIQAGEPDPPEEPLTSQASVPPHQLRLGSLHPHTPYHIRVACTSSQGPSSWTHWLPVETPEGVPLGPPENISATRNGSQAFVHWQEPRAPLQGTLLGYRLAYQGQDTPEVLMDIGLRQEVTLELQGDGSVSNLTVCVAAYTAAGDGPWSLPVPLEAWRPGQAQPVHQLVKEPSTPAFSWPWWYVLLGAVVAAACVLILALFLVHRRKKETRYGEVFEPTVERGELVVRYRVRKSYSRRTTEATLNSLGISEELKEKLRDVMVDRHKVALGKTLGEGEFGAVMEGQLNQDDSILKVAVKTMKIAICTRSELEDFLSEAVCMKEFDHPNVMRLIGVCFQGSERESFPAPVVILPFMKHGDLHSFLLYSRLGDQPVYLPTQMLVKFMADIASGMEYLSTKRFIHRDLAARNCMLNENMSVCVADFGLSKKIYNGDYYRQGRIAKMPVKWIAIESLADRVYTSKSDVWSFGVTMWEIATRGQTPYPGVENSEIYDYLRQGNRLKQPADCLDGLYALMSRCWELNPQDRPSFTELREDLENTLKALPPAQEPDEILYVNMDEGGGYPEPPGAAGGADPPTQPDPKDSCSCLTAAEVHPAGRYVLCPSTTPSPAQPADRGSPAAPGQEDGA

[2] = molecular target: T2, cynomolgus monkey AXL (cynomolgus monkey, UniProt P30530 26-894 (human entry)); experiment: flow cytometry, transfected HEK293T cells, 10 µg/ml
T2 construct: Cloned from cynomolgus brain cDNA; transiently expressed on HEK293T cells (pcDNA3-cyAXL); also called cyAXL
T2 chain: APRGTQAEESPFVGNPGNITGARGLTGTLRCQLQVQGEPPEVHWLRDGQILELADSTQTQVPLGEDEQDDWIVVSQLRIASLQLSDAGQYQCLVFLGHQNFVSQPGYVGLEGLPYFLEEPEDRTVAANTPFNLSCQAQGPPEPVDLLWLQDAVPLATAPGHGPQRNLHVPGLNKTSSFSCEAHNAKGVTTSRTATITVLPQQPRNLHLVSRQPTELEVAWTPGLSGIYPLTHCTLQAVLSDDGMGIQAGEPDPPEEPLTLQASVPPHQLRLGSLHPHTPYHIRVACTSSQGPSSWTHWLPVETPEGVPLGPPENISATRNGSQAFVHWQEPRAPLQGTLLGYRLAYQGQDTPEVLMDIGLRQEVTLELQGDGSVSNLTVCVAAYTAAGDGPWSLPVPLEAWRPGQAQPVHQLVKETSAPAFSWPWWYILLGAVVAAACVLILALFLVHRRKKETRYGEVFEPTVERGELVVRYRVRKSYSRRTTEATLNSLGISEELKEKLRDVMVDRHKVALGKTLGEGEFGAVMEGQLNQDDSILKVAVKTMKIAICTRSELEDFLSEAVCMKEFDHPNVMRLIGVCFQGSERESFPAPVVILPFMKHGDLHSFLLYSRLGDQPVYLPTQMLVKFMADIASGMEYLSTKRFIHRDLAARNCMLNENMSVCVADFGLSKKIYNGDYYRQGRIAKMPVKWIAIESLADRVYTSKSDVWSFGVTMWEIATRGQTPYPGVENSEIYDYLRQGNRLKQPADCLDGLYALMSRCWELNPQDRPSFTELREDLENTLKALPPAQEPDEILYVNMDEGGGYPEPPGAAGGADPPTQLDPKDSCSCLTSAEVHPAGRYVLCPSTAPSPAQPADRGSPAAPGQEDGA
Experimental: FIG. 3. Flow cytometry analysis of cross-reactivity of rat-anti AXL antibodies with mouse and cynomolgus monkey AXL as well as human Mer and Sky. HEK293T fibroblasts were transiently transfected with pcDNA3, pcDNA3-hAXL, pcDNA3 mAXL, pcDNA3-cyAXL, pcDNA3-hMer, or pcDNA3-hSky. […] See text for details.
For FACS analysis, 2×10⁵ cells were harvested with 10 mM EDTA in PBS, washed once with FACS buffer (PBS, 3% FCS, 0.4% azide) and seeded on a 96 well round bottom plate. […] After incubation on ice for 1 h, cells were washed twice with chilled FACS buffer and resuspended with PE-conjugated donkey anti-rat (Jackson) secondary antibody diluted 1:50 in FACS buffer (100 μl/well) or PE-conjugated donkey anti-mouse secondary antibody for control. Protected from light, cells were incubated on ice for 30 min, washed twice with FACS buffer and analyzed using an Epics XL-MCL flow cytometer (Beckman Coulter).

[3] = molecular target: T1, human receptor tyrosine kinase AXL …; experiment: FACS Scatchard (apparent KD) on human AXL overexpressing NIH3T3 cells
Experimental: Human AXL overexpression NIH3T3 cells were harvested by incubation with 10 mM EDTA in PBS and resuspended at 6 million cells per ml in FACS buffer (PBS pH 7.4, 3% FCS, 0.1% NaN₃). […] Antibody binding was allowed to proceed for 2 hours on ice. Then, cells were washed twice with 250 μl FACS buffer per well, and resuspended in 200 μl of secondary antibody (anti-rat-PE; Jackson) diluted 1:50 in FACS buffer. After 45 minutes of incubation, cells were again washed twice in FACS buffer and resuspended in […] PBS for FACS analysis. Analysis was carried out on a Beckman-Coulter FACS FC500. To determine the apparent affinity constant KDapp, mean fluorescence values were plotted against the ratio of mean fluorescence and the corresponding antibody concentration ([M]).

IC50 of VEGF-A-stimulated HUVEC spheroid sprouting [1] [µM] | binding result [2] | Kd [3] [µM] | Binder
0.098 | binds | 0.00038 | I 11B7 (antibody, V domains shown, rat hybridoma antibody, antagonistic) VH: EVQLQESGPGLVKPSQSLSLTCSVTGYSITSNYWGWIRKFPGDKMEWMGYITYSGSTSYNPSLKSRISITRDTSKNQFFLQLNSVTSEDTATYYCAITTFYYWGQGVMVTVSS VL: DIQMTQAPSSLPASLGDRVTITCRASQDIGNYLRWFQQKPGKSPRLMISGATNLAAGVPSRFSGSRSGSDYSLTISSLESEDMADYYCLQSKESPWTFGGGTKLELK
0.7 | binds | 0.00081 | III 11D5 (antibody, rat IgG2a, V domains shown, rat hybridoma antibody, antagonistic) VH: EVQLQESGPGLVKPSQSLSLTCSVTGYSITSNYWGWIRKFPGNKMEWIGHITNSGNTTYNPSLKSRISISRDTSRNQFFLQLNSVTTEDTATYYCAKGAFDYWGQGVMVTVSS VL: DIQMTQSPSSMSTSLGDRVTITCRASQDIGNYLSWFQQKVGKSPRRMIYGAIKLAVGVPSRFSGSRSGSDYSLTISSLESEDMAIYYCLQYIQFPLTFGSGTKLELK
– | binds | – | I 10D12 (antibody, V domains shown, rat hybridoma antibody, antagonistic; subclass G1) VH: EVQLQESGPGLVKPSQSLSLTCSVTGYSITSNYWGWIRKFPGNKMEWMGYITNSGGTAYNPSLKSRISITRDTSKNQFFLQLNSVIPEDSATYFCSRTPWDWGQGVMVTVSS VL: DIQMTQAPSSLPASLGDRVTIACRASQDIGNYLRWFQQKPGKSPRLMISGATNLAAGVPSRFSGSRSGSDYSRTISSLESEDMADYYCLQSKESPWTFGGGTKLELK
